Laboratory results published in paper PMC7781312.

Target: prefusion-stabilized MERS-CoV S ectodomain trimer (MERS-CoV 2P S) (MERS-CoV) (UniProt K9N5Q8)
Experiment: cryo-EM structure

Chain of prefusion-stabilized MERS-CoV S ectodomain trimer (MERS-CoV 2P S) (K9N5Q8 18-1296): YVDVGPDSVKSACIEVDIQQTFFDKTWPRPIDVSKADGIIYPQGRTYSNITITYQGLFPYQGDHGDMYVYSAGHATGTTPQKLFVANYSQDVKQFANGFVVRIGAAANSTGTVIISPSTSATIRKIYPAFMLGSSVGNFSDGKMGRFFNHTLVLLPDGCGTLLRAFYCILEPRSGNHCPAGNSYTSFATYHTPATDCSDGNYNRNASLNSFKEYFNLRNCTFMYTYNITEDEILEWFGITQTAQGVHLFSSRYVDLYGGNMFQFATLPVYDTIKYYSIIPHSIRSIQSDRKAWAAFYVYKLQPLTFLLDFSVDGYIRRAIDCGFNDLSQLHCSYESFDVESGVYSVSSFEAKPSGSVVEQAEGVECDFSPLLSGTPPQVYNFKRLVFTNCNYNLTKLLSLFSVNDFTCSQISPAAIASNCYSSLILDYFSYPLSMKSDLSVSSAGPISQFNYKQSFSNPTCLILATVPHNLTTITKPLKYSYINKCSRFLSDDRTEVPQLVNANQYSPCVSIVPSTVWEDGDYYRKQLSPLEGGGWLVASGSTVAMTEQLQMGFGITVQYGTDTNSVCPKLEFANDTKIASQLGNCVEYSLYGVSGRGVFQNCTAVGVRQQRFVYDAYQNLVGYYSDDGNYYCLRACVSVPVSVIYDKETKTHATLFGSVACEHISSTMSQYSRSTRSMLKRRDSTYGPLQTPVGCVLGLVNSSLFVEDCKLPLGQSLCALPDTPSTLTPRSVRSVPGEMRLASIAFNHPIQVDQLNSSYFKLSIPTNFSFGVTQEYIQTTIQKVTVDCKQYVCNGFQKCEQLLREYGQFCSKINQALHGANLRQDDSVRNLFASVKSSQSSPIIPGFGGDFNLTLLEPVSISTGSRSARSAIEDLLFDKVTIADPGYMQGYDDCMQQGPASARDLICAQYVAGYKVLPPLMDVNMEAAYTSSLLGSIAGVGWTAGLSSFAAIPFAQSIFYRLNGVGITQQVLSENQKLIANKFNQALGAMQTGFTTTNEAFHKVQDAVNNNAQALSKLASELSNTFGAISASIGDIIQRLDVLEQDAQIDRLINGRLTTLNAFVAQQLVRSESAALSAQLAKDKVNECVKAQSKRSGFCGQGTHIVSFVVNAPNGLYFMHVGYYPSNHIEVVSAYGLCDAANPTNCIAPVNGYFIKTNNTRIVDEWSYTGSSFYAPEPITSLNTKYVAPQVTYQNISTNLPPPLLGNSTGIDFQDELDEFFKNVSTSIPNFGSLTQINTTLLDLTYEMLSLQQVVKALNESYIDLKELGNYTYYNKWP

Work on “prefusion-stabilized MERS-CoV S ectodomain trimer (MERS-CoV 2P S) (from UniProt K9N5Q8 18-1296) (domain or fragment)” yielded a stoichiometry N of 3.
